According to patent US20250312453A1:

Target: MSLN (UniProt Q13421)
Assay: BLI

MSLN, sequence (Q13421 other isoform, or with tags, fused parts or gaps limits assumed): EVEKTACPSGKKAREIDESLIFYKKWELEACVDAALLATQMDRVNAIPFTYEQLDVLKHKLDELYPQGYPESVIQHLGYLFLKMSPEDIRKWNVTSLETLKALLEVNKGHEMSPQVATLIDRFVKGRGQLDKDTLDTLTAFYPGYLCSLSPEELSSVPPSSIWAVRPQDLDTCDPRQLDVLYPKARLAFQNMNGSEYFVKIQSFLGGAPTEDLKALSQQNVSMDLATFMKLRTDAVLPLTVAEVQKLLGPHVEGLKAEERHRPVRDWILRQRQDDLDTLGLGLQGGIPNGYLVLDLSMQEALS

Kd: 11.4 nM
B1: nanobody NM5 (VHH)
VHH: DVQLQESGGGLVQAGGSLRLSCVGAGVSFSPYGIGWWRQAQGNQREWVASIYRSGSTNYEDFAKDRFTISRDNTKNTAYLQMNSLKPEDTAVYYCQILGTSYRGQGTQVTVSS
